From US20130336893A1 (Sanofi, published 2013)
*1 amine or outer side, *2 acyl side, *3 side chain or, on linkers, in order; H or OH if unused. Where no end group is shown, it is not given here. Side-chain parts run from the residue outwards. [ ]: non-standard residue; d: D form. The star is where a group is joined. γGlu = O=C(O)[C@H](CCC(=O)[*:2])N[*:1]; Desaminohistidyl = O=C(CCc1c[nH]cn1)*; Ser(Me) = COC[C@H](N[*:1])C(=O)[*:2]; Palmitoyl = CCCCCCCCCCCCCCCC(=O)*; NMeQ = CN[C@@H](CCC(N)=O)C(=O)O; Aib = CC(C)(N)C(=O)O; GABA = NCCCC(=O)O

B1: SEQ ID NO: (28) (peptide)
peptide: H[Ser(Me)]QGTFTSDLSKQMDSRRAQDFIEWLKNGGPSSGAPPPS-NH2
modifications: N-terminus assumed
SMILES: CC[C@H](C)[C@H](NC(=O)[C@H](Cc1ccccc1)NC(=O)[C@H](CC(=O)O)NC(=O)[C@H](CCC(N)=O)NC(=O)[C@H](C)NC(=O)[C@H](CCCNC(=N)N)NC(=O)[C@H](CCCNC(=N)N)NC(=O)[C@H](CO)NC(=O)[C@H](CC(=O)O)NC(=O)[C@H](CCSC)NC(=O)[C@H](CCC(N)=O)NC(=O)[C@H](CCCCN)NC(=O)[C@H](CO)NC(=O)[C@H](CC(C)C)NC(=O)[C@H](CC(=O)O)NC(=O)[C@H](CO)NC(=O)[C@@H](NC(=O)[C@H](Cc1ccccc1)NC(=O)[C@@H](NC(=O)CNC(=O)[C@H](CCC(N)=O)NC(=O)[C@H](COC)NC(=O)[C@@H](N)Cc1c[nH]cn1)[C@@H](C)O)[C@@H](C)O)C(=O)N[C@@H](CCC(=O)O)C(=O)N[C@@H](Cc1c[nH]c2ccccc12)C(=O)N[C@@H](CC(C)C)C(=O)N[C@@H](CCCCN)C(=O)N[C@@H](CC(N)=O)C(=O)NCC(=O)NCC(=O)N1CCC[C@H]1C(=O)N[C@@H](CO)C(=O)N[C@@H](CO)C(=O)NCC(=O)N[C@@H](C)C(=O)N1CCC[C@H]1C(=O)N1CCC[C@H]1C(=O)N1CCC[C@H]1C(=O)N[C@@H](CO)C(N)=O
B2: SEQ ID NO: (115) (peptide)
peptide: H[dS]QGTFTSDLSKQMEEEAA[Aib]DFIEWLKAGGPSSGAPPPSK([γGlu-Palmitoyl])-NH2
modifications: N-terminus assumed
SMILES: CCCCCCCCCCCCCCCC(=O)N[C@@H](CCC(=O)NCCCC[C@H](NC(=O)[C@H](CO)NC(=O)[C@@H]1CCCN1C(=O)[C@@H]1CCCN1C(=O)[C@@H]1CCCN1C(=O)[C@H](C)NC(=O)CNC(=O)[C@H](CO)NC(=O)[C@H](CO)NC(=O)[C@@H]1CCCN1C(=O)CNC(=O)CNC(=O)[C@H](C)NC(=O)[C@H](CCCCN)NC(=O)[C@H](CC(C)C)NC(=O)[C@H](Cc1c[nH]c2ccccc12)NC(=O)[C@H](CCC(=O)O)NC(=O)[C@@H](NC(=O)[C@H](Cc1ccccc1)NC(=O)[C@H](CC(=O)O)NC(=O)C(C)(C)NC(=O)[C@H](C)NC(=O)[C@H](C)NC(=O)[C@H](CCC(=O)O)NC(=O)[C@H](CCC(=O)O)NC(=O)[C@H](CCC(=O)O)NC(=O)[C@H](CCSC)NC(=O)[C@H](CCC(N)=O)NC(=O)[C@H](CCCCN)NC(=O)[C@H](CO)NC(=O)[C@H](CC(C)C)NC(=O)[C@H](CC(=O)O)NC(=O)[C@H](CO)NC(=O)[C@@H](NC(=O)[C@H](Cc1ccccc1)NC(=O)[C@@H](NC(=O)CNC(=O)[C@H](CCC(N)=O)NC(=O)[C@@H](CO)NC(=O)[C@@H](N)Cc1c[nH]cn1)[C@@H](C)O)[C@@H](C)O)[C@@H](C)CC)C(N)=O)C(=O)O
B3: SEQ ID NO: (25) (peptide)
peptide: HS[NMeQ]GTFTSDLSKQMDSRRAQDFIEWLKNGGPSSGAPPPS-NH2
modifications: N-terminus assumed
SMILES: CC[C@H](C)[C@H](NC(=O)[C@H](Cc1ccccc1)NC(=O)[C@H](CC(=O)O)NC(=O)[C@H](CCC(N)=O)NC(=O)[C@H](C)NC(=O)[C@H](CCCNC(=N)N)NC(=O)[C@H](CCCNC(=N)N)NC(=O)[C@H](CO)NC(=O)[C@H](CC(=O)O)NC(=O)[C@H](CCSC)NC(=O)[C@H](CCC(N)=O)NC(=O)[C@H](CCCCN)NC(=O)[C@H](CO)NC(=O)[C@H](CC(C)C)NC(=O)[C@H](CC(=O)O)NC(=O)[C@H](CO)NC(=O)[C@@H](NC(=O)[C@H](Cc1ccccc1)NC(=O)[C@@H](NC(=O)CNC(=O)[C@H](CCC(N)=O)N(C)C(=O)[C@H](CO)NC(=O)[C@@H](N)Cc1c[nH]cn1)[C@@H](C)O)[C@@H](C)O)C(=O)N[C@@H](CCC(=O)O)C(=O)N[C@@H](Cc1c[nH]c2ccccc12)C(=O)N[C@@H](CC(C)C)C(=O)N[C@@H](CCCCN)C(=O)N[C@@H](CC(N)=O)C(=O)NCC(=O)NCC(=O)N1CCC[C@H]1C(=O)N[C@@H](CO)C(=O)N[C@@H](CO)C(=O)NCC(=O)N[C@@H](C)C(=O)N1CCC[C@H]1C(=O)N1CCC[C@H]1C(=O)N1CCC[C@H]1C(=O)N[C@@H](CO)C(N)=O
B4: SEQ ID NO: (24) (peptide)
peptide: [Desaminohistidyl]SQGTFTSDLSKQMDSRRAQDFIEWLKNGGPSSGAPPPS-NH2
SMILES: CC[C@H](C)[C@H](NC(=O)[C@H](Cc1ccccc1)NC(=O)[C@H](CC(=O)O)NC(=O)[C@H](CCC(N)=O)NC(=O)[C@H](C)NC(=O)[C@H](CCCNC(=N)N)NC(=O)[C@H](CCCNC(=N)N)NC(=O)[C@H](CO)NC(=O)[C@H](CC(=O)O)NC(=O)[C@H](CCSC)NC(=O)[C@H](CCC(N)=O)NC(=O)[C@H](CCCCN)NC(=O)[C@H](CO)NC(=O)[C@H](CC(C)C)NC(=O)[C@H](CC(=O)O)NC(=O)[C@H](CO)NC(=O)[C@@H](NC(=O)[C@H](Cc1ccccc1)NC(=O)[C@@H](NC(=O)CNC(=O)[C@H](CCC(N)=O)NC(=O)[C@H](CO)NC(=O)CCc1c[nH]cn1)[C@@H](C)O)[C@@H](C)O)C(=O)N[C@@H](CCC(=O)O)C(=O)N[C@@H](Cc1c[nH]c2ccccc12)C(=O)N[C@@H](CC(C)C)C(=O)N[C@@H](CCCCN)C(=O)N[C@@H](CC(N)=O)C(=O)NCC(=O)NCC(=O)N1CCC[C@H]1C(=O)N[C@@H](CO)C(=O)N[C@@H](CO)C(=O)NCC(=O)N[C@@H](C)C(=O)N1CCC[C@H]1C(=O)N1CCC[C@H]1C(=O)N1CCC[C@H]1C(=O)N[C@@H](CO)C(N)=O
B5: SEQ ID NO: (124) (peptide)
peptide: H[dS]QGTFTSDLSKQMESRRAQDFIEWLKSGGPSSGAPPPK([GABA-Palmitoyl])-NH2
modifications: N-terminus assumed
SMILES: CCCCCCCCCCCCCCCC(=O)NCCCC(=O)NCCCC[C@H](NC(=O)[C@@H]1CCCN1C(=O)[C@@H]1CCCN1C(=O)[C@@H]1CCCN1C(=O)[C@H](C)NC(=O)CNC(=O)[C@H](CO)NC(=O)[C@H](CO)NC(=O)[C@@H]1CCCN1C(=O)CNC(=O)CNC(=O)[C@H](CO)NC(=O)[C@H](CCCCN)NC(=O)[C@H](CC(C)C)NC(=O)[C@H](Cc1c[nH]c2ccccc12)NC(=O)[C@H](CCC(=O)O)NC(=O)[C@@H](NC(=O)[C@H](Cc1ccccc1)NC(=O)[C@H](CC(=O)O)NC(=O)[C@H](CCC(N)=O)NC(=O)[C@H](C)NC(=O)[C@H](CCCNC(=N)N)NC(=O)[C@H](CCCNC(=N)N)NC(=O)[C@H](CO)NC(=O)[C@H](CCC(=O)O)NC(=O)[C@H](CCSC)NC(=O)[C@H](CCC(N)=O)NC(=O)[C@H](CCCCN)NC(=O)[C@H](CO)NC(=O)[C@H](CC(C)C)NC(=O)[C@H](CC(=O)O)NC(=O)[C@H](CO)NC(=O)[C@@H](NC(=O)[C@H](Cc1ccccc1)NC(=O)[C@@H](NC(=O)CNC(=O)[C@H](CCC(N)=O)NC(=O)[C@@H](CO)NC(=O)[C@@H](N)Cc1c[nH]cn1)[C@@H](C)O)[C@@H](C)O)[C@@H](C)CC)C(N)=O
B6: SEQ ID NO: (125) (peptide)
peptide: H[dS]QGTFTSDLSKQMESRRAQDFIEWLKSGGPSSGAPPPSK([GABA-Palmitoyl])-NH2
modifications: N-terminus assumed
SMILES: CCCCCCCCCCCCCCCC(=O)NCCCC(=O)NCCCC[C@H](NC(=O)[C@H](CO)NC(=O)[C@@H]1CCCN1C(=O)[C@@H]1CCCN1C(=O)[C@@H]1CCCN1C(=O)[C@H](C)NC(=O)CNC(=O)[C@H](CO)NC(=O)[C@H](CO)NC(=O)[C@@H]1CCCN1C(=O)CNC(=O)CNC(=O)[C@H](CO)NC(=O)[C@H](CCCCN)NC(=O)[C@H](CC(C)C)NC(=O)[C@H](Cc1c[nH]c2ccccc12)NC(=O)[C@H](CCC(=O)O)NC(=O)[C@@H](NC(=O)[C@H](Cc1ccccc1)NC(=O)[C@H](CC(=O)O)NC(=O)[C@H](CCC(N)=O)NC(=O)[C@H](C)NC(=O)[C@H](CCCNC(=N)N)NC(=O)[C@H](CCCNC(=N)N)NC(=O)[C@H](CO)NC(=O)[C@H](CCC(=O)O)NC(=O)[C@H](CCSC)NC(=O)[C@H](CCC(N)=O)NC(=O)[C@H](CCCCN)NC(=O)[C@H](CO)NC(=O)[C@H](CC(C)C)NC(=O)[C@H](CC(=O)O)NC(=O)[C@H](CO)NC(=O)[C@@H](NC(=O)[C@H](Cc1ccccc1)NC(=O)[C@@H](NC(=O)CNC(=O)[C@H](CCC(N)=O)NC(=O)[C@@H](CO)NC(=O)[C@@H](N)Cc1c[nH]cn1)[C@@H](C)O)[C@@H](C)O)[C@@H](C)CC)C(N)=O

Experiments:
[1] = biological target: human GLP-1 receptor (human, UniProt P43220 24-463); test: cell-based or functional assay
[2] = biological target: human glucagon receptor (human, UniProt P47871 26-477); test: cell-based or functional assay
Chain of human glucagon receptor (P47871 26-477): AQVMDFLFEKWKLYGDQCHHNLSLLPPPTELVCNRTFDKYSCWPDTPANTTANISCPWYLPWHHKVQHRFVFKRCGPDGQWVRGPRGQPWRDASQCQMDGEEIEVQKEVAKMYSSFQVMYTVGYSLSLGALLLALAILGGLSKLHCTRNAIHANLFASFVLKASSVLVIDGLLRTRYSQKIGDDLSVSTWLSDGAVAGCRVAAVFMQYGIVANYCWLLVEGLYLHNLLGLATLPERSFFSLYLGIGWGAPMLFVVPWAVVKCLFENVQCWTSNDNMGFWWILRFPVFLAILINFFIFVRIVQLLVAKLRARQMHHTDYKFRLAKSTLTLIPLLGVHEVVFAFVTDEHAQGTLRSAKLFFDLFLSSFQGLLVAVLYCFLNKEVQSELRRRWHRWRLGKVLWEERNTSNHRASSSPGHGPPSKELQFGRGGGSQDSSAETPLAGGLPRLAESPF

Binder | EC50 hGLP-1R (cAMP formation) [1] | EC50 hGlucagonR (cAMP formation) [2]
HSQGTFTSDLSKQMDKRRAQDFIEWLKNGGPSSGAPPPS-NH2 [SEQ ID NO: (19)] | 0.017 nM | 0.052 nM
HSQGTFTSDLSKQMDSRAAQLFIEWLKNGGPSSGAPPPS-NH2 [SEQ ID NO: (22)] | 0.0008 nM | 0.127 nM
B1 | 0.128 nM | 6.48 nM
B2 | 0.0007 nM | 0.175 nM
B3 | 0.17 nM | 0.171 nM
HSQGTFTSDLSKQMDSRRAQDFIEWLKNGGPSSGAPPPK(Palmitoyl)-NH2 [SEQ ID NO: (21)] | 0.0782 nM | 0.547 nM
HSQGTFTSDLSKQMDSRRAQDFIEWLKNGGPSSGAPPPS-NH2 [SEQ ID NO: (9)] | 0.0222 nM | 0.0264 nM
B4 | 0.264 nM | 0.168 nM
B5 | 0.0139 nM | 0.0213 nM
B6 | 0.0108 nM | 0.0171 nM
